From paper PMC2888147 (The Biochemical journal, 2010)

Assays:
[1] = molecular target: T1, His-tagged KCNQ1 full-length C-terminus (Q1Cf, 349-676) (human, UniProt P51787 349-676); experiment: SPR
T1 sequence (looked up): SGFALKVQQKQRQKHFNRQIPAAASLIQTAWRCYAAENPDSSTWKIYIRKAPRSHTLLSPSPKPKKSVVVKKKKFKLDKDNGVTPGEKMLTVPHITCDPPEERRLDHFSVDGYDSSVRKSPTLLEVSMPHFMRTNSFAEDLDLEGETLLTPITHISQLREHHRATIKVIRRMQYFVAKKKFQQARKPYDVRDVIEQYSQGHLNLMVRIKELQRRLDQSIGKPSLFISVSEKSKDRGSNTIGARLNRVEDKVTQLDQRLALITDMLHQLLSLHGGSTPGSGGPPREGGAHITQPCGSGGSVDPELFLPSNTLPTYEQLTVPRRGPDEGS

[2] = molecular target: T2, His-tagged KCNQ1 C-terminal fragment Q1C1 (349-480) (human, UniProt P51787 349-480); experiment: SPR
T2 sequence (looked up): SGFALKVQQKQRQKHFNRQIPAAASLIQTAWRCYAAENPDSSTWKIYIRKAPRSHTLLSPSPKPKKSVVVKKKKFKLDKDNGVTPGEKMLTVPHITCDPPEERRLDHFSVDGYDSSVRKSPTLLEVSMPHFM

B1: His-tagged KCNE1 C-terminus (E1C) (domain or fragment)
chain: not shown
Kd [1]: 3.2 ± 0.7 µM
Kd [2]: 4.6 ± 1.4 µM
